Drawing on patent publication US20210214454A1, this text covers EC50 (read off the curve) for 1 molecule.

In assay [1] the target is human CD40 protein expressed on cells (human) (UniProt P25942). The assay is described as follows: flow cytometry on CHO-S cells transiently expressing human CD40; AF647 anti-human IgG (H+L) secondary; GeoMean RL1-H. On the technique in general: A flow cytometer gives signals particle by particle.
Assay [2] deals with cynomolgus CD40 protein expressed on CHO-S cells (cynomolgus) (UniProt G7PG38). Kind of assay: flow cytometry on CHO-S cells transiently expressing cynomolgus CD40; AF647 anti-human IgG (H+L) secondary; GeoMean RL1-H.
cynomolgus CD40 protein expressed on CHO-S cells (cynomolgus), sequence (G7PG38 entry or part of it): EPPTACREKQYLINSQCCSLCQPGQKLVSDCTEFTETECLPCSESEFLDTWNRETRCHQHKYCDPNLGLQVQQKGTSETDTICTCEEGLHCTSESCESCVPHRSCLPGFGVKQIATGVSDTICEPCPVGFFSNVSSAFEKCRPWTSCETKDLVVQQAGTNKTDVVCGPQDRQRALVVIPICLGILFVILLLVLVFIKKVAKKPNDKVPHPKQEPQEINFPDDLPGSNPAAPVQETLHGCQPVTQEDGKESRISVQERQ

human CD40 protein expressed on cells (human), sequence (P25942 21-277 limits assumed): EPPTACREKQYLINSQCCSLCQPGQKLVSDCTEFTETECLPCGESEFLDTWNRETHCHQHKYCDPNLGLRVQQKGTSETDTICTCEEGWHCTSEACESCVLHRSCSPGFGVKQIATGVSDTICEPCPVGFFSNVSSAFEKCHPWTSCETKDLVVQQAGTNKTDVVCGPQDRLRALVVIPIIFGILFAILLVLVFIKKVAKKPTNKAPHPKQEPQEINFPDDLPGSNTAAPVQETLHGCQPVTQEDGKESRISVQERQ

B1: ADC-1013 analogue (antibody, INN chains, looked up, IgG1, V domains shown)
VH: EVQLLESGGGLVQPGGSLRLSCAASGFTFSTYGMHWVRQAPGKGLEWLSYISGGSSYIFYADSVRGRFTISRDNSENALYLQMNSLRAEDTAVYYCARILRGGSGMDLWGQGTLVTVSS
VL: QSVLTQPPSASGTPGQRVTISCTGSSSNIGAGYNVYWYQQLPGTAPKLLIYGNINRPSGVPDRFSGSKSGTSASLAISGLRSEDEADYYCAAWDKSISGLVFGGGTKLTVL
B1: the EC50 (read off the curve) in assay [1] and in assay [2] was 0.01 µg/mL in each case.

By EC50 (read off the curve) is commonly meant the concentration that produces a half-maximal response. Low readings indicate higher potency in that assay, high ones lower potency in that assay.
